Data as given in paper PMC3480732.

Legend:
[1] = IP, anti-ubiquitin blot with MG132, HEK 293T; details: control: wild type
[2] = transcriptional activity assay; details: glycan lost; control: wild type
[3] = Figure S3B, method not described in text; details: glycan lost; control: wild type

B1: PGC-1α: S333A (protein)
parent chain: MAWDMCSQDSVWSDIECAALVGEDQPLCPDLPELDLSELDVNDLDTDSFLGGLKWCSDQSEIISNQYNNEPANIFEKIDEENEANLLAVLTETLDSLPVDEDGLPSFDALTDGAVTTDNEASPSSMPDGTPPPQEAEEPSLLKKLLLAPANTQLSYNECSGLSTQNHAANHTHRIRTNPAIVKTENSWSNKAKSICQQQKPQRRPCSELLKYLTTNDDPPHTKPTENRNSSRDKCASKKKSHTQPQSQHAQAKPTTLSLPLTPESPNDPKGSPFENKTIERTLSVELSGTAGLTPPTTPPHKANQDNPFKASPKLKPSCKTVVPPPTKRARYSECSGTQGSHSTKKGPEQSELYAQLSKSSGLSRGHEERKTKRPSLRLFGDHDYCQSLNSKTDILINISQELQDSRQLDFKDASCDWQGHICSSTDSGQCYLRETLEASKQVSPCSTRKQLQDQEIRAELNKHFGHPCQAVFDDKSDKTSELRDGDFSNEQFSKLPVFINSGLAMDGLFDDSEDESDKLSYPWDGTQPYSLFDVSPSCSSFNSPCRDSVSPPKSLFSQRPQRMRSRSRSFSRHRSCSRSPYSRSRSRSPGSRSSSRSCYYYESSHYRHRTHRNSPLYVRSRSRSPYSRRPRYDSYEAYEHERLKRDEYRKEHEKRESERAKQRERQKQKAIEERRVIYVGKIRPDTTRTELRDRFEVFGEIEECTVNLRDDGDSYGFITYRYTCDAFAALENGYTLRRSNETDFELYFCGRKQFFKSNYADLDTNSDDFDPASTKSKYDSLDFDSLLKEAQRSLRR
other: ubiquitination ([1]; glycan lost): increases | other: transcriptional activity [2]: no change | other: phosphorylation [3]: no change

B2: PGC-1α: OGT overexpression (protein)
parent chain: MAWDMCSQDSVWSDIECAALVGEDQPLCPDLPELDLSELDVNDLDTDSFLGGLKWCSDQSEIISNQYNNEPANIFEKIDEENEANLLAVLTETLDSLPVDEDGLPSFDALTDGAVTTDNEASPSSMPDGTPPPQEAEEPSLLKKLLLAPANTQLSYNECSGLSTQNHAANHTHRIRTNPAIVKTENSWSNKAKSICQQQKPQRRPCSELLKYLTTNDDPPHTKPTENRNSSRDKCASKKKSHTQPQSQHAQAKPTTLSLPLTPESPNDPKGSPFENKTIERTLSVELSGTAGLTPPTTPPHKANQDNPFKASPKLKPSCKTVVPPPTKRARYSECSGTQGSHSTKKGPEQSELYAQLSKSSGLSRGHEERKTKRPSLRLFGDHDYCQSLNSKTDILINISQELQDSRQLDFKDASCDWQGHICSSTDSGQCYLRETLEASKQVSPCSTRKQLQDQEIRAELNKHFGHPCQAVFDDKSDKTSELRDGDFSNEQFSKLPVFINSGLAMDGLFDDSEDESDKLSYPWDGTQPYSLFDVSPSCSSFNSPCRDSVSPPKSLFSQRPQRMRSRSRSFSRHRSCSRSPYSRSRSRSPGSRSSSRSCYYYESSHYRHRTHRNSPLYVRSRSRSPYSRRPRYDSYEAYEHERLKRDEYRKEHEKRESERAKQRERQKQKAIEERRVIYVGKIRPDTTRTELRDRFEVFGEIEECTVNLRDDGDSYGFITYRYTCDAFAALENGYTLRRSNETDFELYFCGRKQFFKSNYADLDTNSDDFDPASTKSKYDSLDFDSLLKEAQRSLRR
other: ubiquitination ([1]; glycan gained): decreases
